Reference: patent US20240316154A1 (Eli Lilly, published 2024)

What was measured:
Human serum albumin = target: T1, Human serum albumin (human, UniProt P02768 25-609); assay: SPR, SA on chip, VHH 300 nM, 25 C
T1 construct: bought; immobilised on a CM5 chip by amine coupling; also called Human SA
Method: (§1) Immobilization of SA to a Series S Sensor Chip CM5 surface is performed according to the manufacturer's instructions (amine coupling kit BR-1000-50). […] Human SA is obtained from Sigma Aldrich (St. Louis, MO; Cat. No. A8763). […] Mouse SA is obtained from Sigma Aldrich (Cat. No. A3559). Rat SA is obtained from Sigma Aldrich (Cat. No. A4538). Pig SA is obtained from Sigma Aldrich (Cat. No. A4414). […] Cow SA is obtained from Sigma Aldrich (Cat. No. A7030). The various SAs are covalently immobilized through free amines onto a carboxymethyl dextran-coated sensor chip CM5 targeting a surface density of average approximately 77 (58-98) RU. Excess reactive groups on the surfaces (flow cell 1 and 2) are deactivated by injecting 70 μL of 1 M ethanolamine hydrochloride-NaOH, pH 8.5, at 10 μL/min.
(§2) VHH moieties are diluted in HBS-EP+buffer (10 mM HEPES, pH 7.6, 150 mM NaCl, 3 mM EDTA, and 0.05% Polysorbate 20) at concentrations of 300 nM. 150 μL of sample is individually injected sequentially across the immobilized SAs surface and is dissociated for 600 sec at a flow rate of 50 L/min at 25 C. […] The resulting sensorgrams are analyzed using Biacore 8K Insight Evaluation Software (version 2.0.15.12933) to calculate the dissociation rate (kd).

Rat serum albumin [1] = target: T2, Rat serum albumin (rat, UniProt P02770 25-608); assay: SPR, SA on chip, VHH 300 nM, 25 C
T2 construct: bought; immobilised on a CM5 chip by amine coupling; also called Rat SA
Method: as §1, §2

Mouse serum albumin [2] = target: T3, Mouse serum albumin (mouse, UniProt P07724 25-608); assay: SPR, SA on chip, VHH 300 nM, 25 C
T3 construct: bought; immobilised on a CM5 chip by amine coupling; also called Mouse SA
Method: as §1, §2

Pig serum albumin [3] = target: T4, Pig serum albumin (pig, UniProt P08835 25-607); assay: SPR, SA on chip, VHH 300 nM, 25 C
T4 construct: bought; immobilised on a CM5 chip by amine coupling; also called Pig SA
Method: as §1, §2

Dog serum albumin [4] = target: T5, Dog serum albumin (dog, UniProt P49822 25-608); assay: SPR, SA on chip, VHH 300 nM, 25 C
T5 construct: bought; immobilised on a CM5 chip by amine coupling; also called Dog SA
Method: as §1, §2

[5] = target: T6, Cynomolgus monkey serum albumin (cynomolgus monkey, UniProt A2V9Z4 25-608); assay: SPR, SA on chip, VHH 300 nM, 25 C
T6 construct: bought; immobilised on a CM5 chip by amine coupling; also called Cyno SA
Method: as §1, §2

Rat serum albumin [6] = target: T2, Rat serum albumin; assay: SPR, SA on chip, 25 C
Mouse serum albumin [7] = target: T3, Mouse serum albumin; assay: SPR, SA on chip, 25 C
Pig serum albumin [8] = target: T4, Pig serum albumin; assay: SPR, SA on chip, 25 C
Cow serum albumin = target: T7, Cow serum albumin (cow, UniProt P02769 25-607); assay: SPR, SA on chip, 25 C
T7 construct: bought; immobilised on a CM5 chip by amine coupling; also called Cow SA

Dog serum albumin [9] = target: T5, Dog serum albumin; assay: SPR, SA on chip, 25 C
[10] = target: T6, Cynomolgus monkey serum albumin; assay: SPR, SA on chip, 25 C

Binder	koff (Human serum albumin) [s⁻¹]	koff (Rat serum albumin [1]) [s⁻¹]	koff (Mouse serum albumin [2]) [s⁻¹]	koff (Pig serum albumin [3]) [s⁻¹]	koff (Dog serum albumin [4]) [s⁻¹]	koff [5] [s⁻¹]	binding result (Rat serum albumin [6])	binding result (Mouse serum albumin [7])	binding result (Pig serum albumin [8])	binding result (Cow serum albumin)	binding result (Dog serum albumin [9])	binding result [10]
VHH moiety 4 (MC6.1C80.43) (VHH) VHH: EVQLLESGGGLVQPGGSLRLSCAASGRYIDETAVAWFRQAPGKGREFVAGIGGGVDITYYADSVKGRFTISRDNSKNTLYLQMNSLRPEDTAVYYCAARPGRPLITSKVADLYPYWGQGTLVTVSS	0.00021	0.0033	0.0043	0.0057	0.0017	0.00053						
VHH moiety 12 (MC6.1C22-Y59A) (VHH) VHH: EVQLLESGGGLVQPGGSLRLSCAASGRYIDETAVAWFRQAPGKEREFVAGIGGGVDITAYADSVKGRFTISRDNSKNTLYLQMNSLRPEDTAVYYCAARPGRPLITSKVADLYPYWGQGTLVTVSS	0.011						no binding (tested: 300 nM)	no binding (tested: 300 nM)	no binding (tested: 300 nM)	no binding (tested: 300 nM)	no binding (tested: 300 nM)	
VHH moiety 16 (MC6.1C22-Y59T) (VHH) VHH: EVQLLESGGGLVQPGGSLRLSCAASGRYIDETAVAWFRQAPGKEREFVAGIGGGVDITTYADSVKGRFTISRDNSKNTLYLQMNSLRPEDTAVYYCAARPGRPLITSKVADLYPYWGQGTLVTVSS	0.0039					0.015	no binding (tested: 300 nM)	no binding (tested: 300 nM)	no binding (tested: 300 nM)	no binding (tested: 300 nM)		
VHH moiety 18 (MC6.1C22-R102Q) (VHH) VHH: EVQLLESGGGLVQPGGSLRLSCAASGRYIDETAVAWFRQAPGKEREFVAGIGGGVDITYYADSVKGRFTISRDNSKNTLYLQMNSLRPEDTAVYYCAARPGQPLITSKVADLYPYWGQGTLVTVSS	0.0076	0.014			0.015	0.0072				no binding (tested: 300 nM)		
VHH moiety 40 (MC6.1C95.43) (VHH) VHH: EVQLLESGGGLVQPGGSLRLSCAASGRYIDETAVAWFRQAPGKGREFVAGIGGGVDITYYADSVKGRFTISRDNSKNTLYLQMNSLRPEDTAVYYCGTRPGRPLITSKVADLYPYWGQGTLVTVSS	0.00014	0.0053	0.0054	0.0058	0.0021	0.00072						
VHH moiety 10 (MC6.1C22-157E) (VHH, name printed as 157E) VHH: EVQLLESGGGLVQPGGSLRLSCAASGRYIDETAVAWFRQAPGKEREFVAGIGGGVDETYYADSVKGRFTISRDNSKNTLYLQMNSLRPEDTAVYYCAARPGRPLITSKVADLYPYWGQGTLVTVSS										no binding (tested: 300 nM)		
VHH moiety 22 (MC6.1C22-P103S) (VHH) VHH: EVQLLESGGGLVQPGGSLRLSCAASGRYIDETAVAWFRQAPGKEREFVAGIGGGVDITYYADSVKGRFTISRDNSKNTLYLQMNSLRPEDTAVYYCAARPGRSLITSKVADLYPYWGQGTLVTVSS	0.0028	0.01	0.01	0.011	0.0074	0.014						
VHH moiety 21 (MC6.1C22-P103Q) (VHH) VHH: EVQLLESGGGLVQPGGSLRLSCAASGRYIDETAVAWFRQAPGKEREFVAGIGGGVDITYYADSVKGRFTISRDNSKNTLYLQMNSLRPEDTAVYYCAARPGRQLITSKVADLYPYWGQGTLVTVSS	0.0025	0.011	0.013	0.01	0.0081	0.014						
VHH moiety 25 (MC6.1C22-L104Q) (VHH) VHH: EVQLLESGGGLVQPGGSLRLSCAASGRYIDETAVAWFRQAPGKEREFVAGIGGGVDITYYADSVKGRFTISRDNSKNTLYLQMNSLRPEDTAVYYCAARPGRPQITSKVADLYPYWGQGTLVTVSS										no binding (tested: 300 nM)		no binding (tested: 300 nM)

More lines, now with the values ahead:

koff (Human serum albumin) [s⁻¹]	koff (Rat serum albumin [1]) [s⁻¹]	koff (Mouse serum albumin [2]) [s⁻¹]	koff (Pig serum albumin [3]) [s⁻¹]	koff (Dog serum albumin [4]) [s⁻¹]	koff [5] [s⁻¹]	binding result (Rat serum albumin [6])	binding result (Mouse serum albumin [7])	binding result (Pig serum albumin [8])	binding result (Cow serum albumin)	binding result (Dog serum albumin [9])	binding result [10]	Binder
0.0045	0.015	0.015	0.014	0.014	0.0073				no binding (tested: 300 nM)			VHH moiety 19 (MC6.1C22-R102S) (VHH) VHH: EVQLLESGGGLVQPGGSLRLSCAASGRYIDETAVAWFRQAPGKEREFVAGIGGGVDITYYADSVKGRFTISRDNSKNTLYLQMNSLRPEDTAVYYCAARPGSPLITSKVADLYPYWGQGTLVTVSS
0.0058						no binding (tested: 300 nM)	no binding (tested: 300 nM)	no binding (tested: 300 nM)	no binding (tested: 300 nM)	no binding (tested: 300 nM)		VHH moiety 15 (MC6.1C22-Y59S) (VHH) VHH: EVQLLESGGGLVQPGGSLRLSCAASGRYIDETAVAWFRQAPGKEREFVAGIGGGVDITSYADSVKGRFTISRDNSKNTLYLQMNSLRPEDTAVYYCAARPGRPLITSKVADLYPYWGQGTLVTVSS
0.0092						no binding (tested: 300 nM)	no binding (tested: 300 nM)	no binding (tested: 300 nM)	no binding (tested: 300 nM)		no binding (tested: 300 nM)	VHH moiety 20 (MC6.1C22-P103) (VHH, name printed without the new residue) VHH: EVQLLESGGGLVQPGGSLRLSCAASGRYIDETAVAWFRQAPGKEREFVAGIGGGVDITYYADSVKGRFTISRDNSKNTLYLQMNSLRPEDTAVYYCAARPGRELITSKVADLYPYWGQGTLVTVSS
9.4e-05	0.0038	0.0056	0.0065	0.0021	0.0006							VHH moiety 39 (MC6.1C90.43) (VHH) VHH: EVQLLESGGGLVQPGGSLRLSCAASGRYIDETAVAWFRQAPGKGREFVAGIGGGVDITYYADSVKGRFTISRDNSKNTLYLQMNSLRPEDTAVYYCGARPGRPLITSKVADLYPYWGQGTLVTVSS
0.0012	0.011	0.013	0.012	0.011	0.0032							VHH moiety 9 (MC6.1C22-R27A) (VHH) VHH: EVQLLESGGGLVQPGGSLRLSCAASGAYIDETAVAWFRQAPGKEREFVAGIGGGVDITYYADSVKGRFTISRDNSKNTLYLQMNSLRPEDTAVYYCAARPGRPLITSKVADLYPYWGQGTLVTVSS
0.0074						no binding (tested: 300 nM)	no binding (tested: 300 nM)	no binding (tested: 300 nM)	no binding (tested: 300 nM)	no binding (tested: 300 nM)		VHH moiety 11 (MC6.1C22-157Q) (VHH, name printed as 157Q) VHH: EVQLLESGGGLVQPGGSLRLSCAASGRYIDETAVAWFRQAPGKEREFVAGIGGGVDQTYYADSVKGRFTISRDNSKNTLYLQMNSLRPEDTAVYYCAARPGRPLITSKVADLYPYWGQGTLVTVSS
